# Results: article doi:10.1101/2025.09.16.675330
# Assays:
# Glu105 = assay: UV-vis; conditions: dark (ground) state, retinal-bound wild type; cited from earlier work
# [1] = target: ChR024 (cation-conducting channelrhodopsin), full-length wild type, residues M1-T280; assay: cryo-EM structure
substance,measurement,setting,value
"ChR024 (cation-conducting channelrhodopsin) (not stated (uncultured organism; sequence mined from a metagenomic database, identifier IMGM3300027749|Ga0209084_1026585|Ga0209084_10265853))",pKa,Glu105,8.25
"ChR024 (cation-conducting channelrhodopsin), full-length wild type, residues M1-T280 (natural protein)",stoichiometry N,[1],3
